Values quoted from earlier work as cited in article PMC2652713, “Molecular Blocking of CD23 Supports Its Role in the Pathogenesis of Arthritis” (PLoS ONE, 2009).

Test system: human macrophages and epithelial cells
Source text: Authors reported overexpression of membrane bound and sCD23 during acute juvenile or adult arthritis, with a clear pro-inflammatory property in this form. In the present study, we report similar observations in peripheral and synovial liquid monocytes/macrophages from adult arthritic patients (Figure 5).

B1: IL-10: a well-known immunoregulator and Th-1 inhibitor cytokine (protein, UniProt P22301 19-178, looked up)
Interleukin-10: SPGQGTQSENSCTHFPGNLPNMLRDLRDAFSRVKTFFQMKDQLDNLLLKESLLEDFKGYLGCQALSEMIQFYLEEVMPQAENQDPDIKAHVNSLGENLKTLRLRLRRCHRFLPCENKSKAVEQVKNAFNKLQEKGIYKAMSEFDIFINYIEAYMTMKIRN
- CD23-mediated TNF-α production: decreased
- CD23-mediated nitric oxide production: decreased
